Reference: the Human Domainome abundance scans (Beltran et al. 2025)
± gives the uncertainty stated by the source.

B1: TOX high mobility group box family member 3, residues 256 to 323; numbered along this chain, O15405 (parent)
chain: QKPVSAYALFFRDTQAAIKGQNPNATFGEVSKIVASMWDSLGEEQKQVYKRKTEAAKKEYLKALAAYR

Variants of: B1
Test: abundance fitness (aPCA) (normalised: wild type 0, dead -1); higher = more abundant; growth selection in yeast, the domain comes from the species named
Conditions: Homo sapiens

| Variant | abundance fitness |
| --- | --- |
| T14M | 0.048 ± 0.084 |
| T14I | -0.326 ± 0.12 |
| T14L | -0.314 ± 0.064 |
| T14F | -0.99 ± 0.34 |
| T14A | -0.29 ± 0.11 |
| V48I | -0.133 ± 0.19 |
| F11Y | -0.278 ± 0.19 |
| A55C | -0.246 ± 0.095 |
| A55P | -0.157 ± 0.051 |
| A55I | -0.148 ± 0.09 |
| A55F | -0.211 ± 0.077 |
| A55S | -0.029 ± 0.041 |
| A55G | -0.022 ± 0.051 |
| A16E | 0.158 ± 0.076 |
| A16G | -0.209 ± 0.074 |
| A16P | 0.067 ± 0.063 |
| A16Q | -0.133 ± 0.077 |
| A16M | -0.401 ± 0.14 |
| A16W | -0.324 ± 0.093 |
| G20Y | -0.361 ± 0.096 |
| G20Q | 0.224 ± 0.066 |
| G20D | 0.192 ± 0.11 |
| G20S | 0.1 ± 0.047 |
| G20P | -0.327 ± 0.12 |

| Variant | abundance fitness |
| --- | --- |
| G20C | -0.116 ± 0.061 |
| G20I | -0.01 ± 0.099 |
| G20M | -0.222 ± 0.18 |
| Y67V | 0.323 ± 0.069 |
| Y67F | -0.106 ± 0.077 |
| Y67T | 0.274 ± 0.078 |
| Y67R | 0.306 ± 0.063 |
| Y67E | 0.138 ± 0.35 |
| Y67Q | 0.281 ± 0.17 |
| K58L | -0.135 ± 0.057 |
| K58R | -0.043 ± 0.049 |
| K58N | -0.089 ± 0.088 |
| K58I | -0.204 ± 0.13 |
| E29K | -0.534 ± 0.15 |
| E29C | -0.643 ± 0.1 |
| E29N | -0.543 ± 0.12 |
| Y7E | -0.263 ± 0.11 |
| Y7T | -0.679 ± 0.11 |
| Y7A | -0.498 ± 0.14 |
| Y7W | -0.462 ± 0.098 |
| A65Q | 0.004 ± 0.097 |
| A65E | 0.113 ± 0.047 |
| V4S | -0.112 ± 0.057 |
| K57G | -0.125 ± 0.053 |

| Variant | abundance fitness |
| --- | --- |
| K57D | 0.025 ± 0.063 |
| G42N | 0.108 ± 0.079 |
| G42V | -0.59 ± 0.079 |
| G42W | -0.858 ± 0.14 |
| K2G | -0.344 ± 0.05 |
| K2T | -0.294 ± 0.081 |
| K2H | -0.012 ± 0.12 |
| K2I | -0.003 ± 0.043 |
| K2M | -0.335 ± 0.083 |
| K2C | -0.434 ± 0.13 |
| K2W | -0.781 ± 0.15 |
| R68E | 0.197 ± 0.058 |
| R68G | -0.01 ± 0.078 |
| R68W | -0.322 ± 0.22 |
| R68Y | -0.292 ± 0.11 |
| W38H | -0.727 ± 0.45 |
| W38V | -1.07 ± 0.14 |
| W38G | -0.855 ± 0.12 |
| W38E | -0.653 ± 0.12 |
| W38F | -0.716 ± 0.2 |
| W38D | -0.789 ± 0.21 |
| L9M | -0.035 ± 0.081 |
| L9Q | 0.053 ± 0.073 |
| L9D | -0.217 ± 0.29 |

| Variant | abundance fitness |
| --- | --- |
| K19W | -0.519 ± 0.24 |
| K19V | -0.122 ± 0.056 |
| K19I | -0.179 ± 0.058 |
| K19M | 0.027 ± 0.083 |
| K19T | -0.221 ± 0.063 |
| K19L | -0.166 ± 0.05 |
| K19Q | 0.069 ± 0.066 |
| T26L | -0.544 ± 0.068 |
| T26I | -1.01 ± 0.23 |
| T26P | -0.332 ± 0.071 |
| N24Y | -0.563 ± 0.097 |
| N24G | 0.096 ± 0.056 |
| N24S | 0.034 ± 0.052 |
| N24D | -0.055 ± 0.091 |
| N24V | -0.591 ± 0.08 |
| N24H | 0.028 ± 0.097 |
| N24E | -0.001 ± 0.07 |
| N24C | -0.331 ± 0.086 |
| P23Y | -0.948 ± 0.29 |
| P23C | -0.627 ± 0.21 |
| P23Q | -0.241 ± 0.088 |
| P23N | -0.251 ± 0.15 |
| P23M | -0.743 ± 0.13 |
| S36N | -0.054 ± 0.076 |

| Variant | abundance fitness |
| --- | --- |
| S36A | 0.005 ± 0.036 |
| S36L | -0.344 ± 0.052 |
| S36E | 0.044 ± 0.042 |
| S36C | -0.317 ± 0.24 |
| S36M | -0.097 ± 0.057 |
| A66E | 0.218 ± 0.067 |
| A66F | -0.453 ± 0.08 |
| A66K | -0.221 ± 0.19 |
| A66T | 0.184 ± 0.061 |
| A66M | -0.097 ± 0.068 |
| A66I | -0.333 ± 0.15 |
| F27E | 0.162 ± 0.072 |
| F27T | 0.098 ± 0.069 |
| F27H | 0.182 ± 0.094 |
| F27I | -0.071 ± 0.22 |
| F27V | 0.004 ± 0.049 |
| F27L | 0.051 ± 0.041 |
| R51D | 0.101 ± 0.083 |
| R51S | -0.02 ± 0.044 |
| R51M | -0.069 ± 0.056 |
| R51W | -0.079 ± 0.057 |
| R51K | 0.05 ± 0.084 |
| V34E | -0.963 ± 0.17 |
| V34Q | -0.954 ± 0.38 |

| Variant | abundance fitness |
| --- | --- |
| V34H | -1.06 ± 0.23 |
| V34L | -0.529 ± 0.069 |
| A17R | 0.083 ± 0.055 |
| A17V | 0.017 ± 0.064 |
| S5A | -0.314 ± 0.066 |
| S5I | -0.94 ± 0.39 |
| S5R | -0.348 ± 0.08 |
| S5K | -0.166 ± 0.14 |
| S5P | -0.458 ± 0.11 |
| T53Y | 0.276 ± 0.094 |
| T53P | -0.326 ± 0.076 |
| T53N | -0.104 ± 0.056 |
| T53A | 0.136 ± 0.053 |
| T53V | 0.146 ± 0.047 |
| T53G | 0.073 ± 0.049 |
| T53L | -0.09 ± 0.038 |
| A63N | 0.107 ± 0.074 |
| A63Y | -0.167 ± 0.068 |
| A63H | 0.155 ± 0.079 |
| A63Q | 0.119 ± 0.064 |
| A63I | -0.34 ± 0.076 |
| A63W | -0.178 ± 0.05 |
| M37N | -0.114 ± 0.13 |
| M37C | -0.186 ± 0.084 |

| Variant | abundance fitness |
| --- | --- |
| M37W | -0.874 ± 0.12 |
| M37D | -0.488 ± 0.16 |
| M37H | -0.227 ± 0.085 |
| M37I | -0.422 ± 0.13 |
| M37F | -0.427 ± 0.13 |
| A25I | -0.121 ± 0.066 |
| A25V | -0.076 ± 0.067 |
| A25C | -0.369 ± 0.079 |
| A25H | -0.299 ± 0.084 |
| A25G | -0.696 ± 0.1 |
| E44D | 0.069 ± 0.067 |
| E44C | 0.023 ± 0.18 |
| E44F | -0.541 ± 0.061 |
| E44A | -0.116 ± 0.051 |
| E44K | 0.066 ± 0.099 |
| E44R | -0.359 ± 0.07 |
| L64K | 0.205 ± 0.06 |
| L64C | 0.153 ± 0.066 |
| L64D | 0.323 ± 0.076 |
| L64A | -0.093 ± 0.093 |
| L64M | -0.031 ± 0.15 |
| Q15M | -0.068 ± 0.078 |
| Q15H | -0.084 ± 0.14 |
